The results in this text go back to patent publication US20110190477A1 (G2 INFLAMMATION, published 2011).

Assay [1] addresses T1, human C5a receptor (human, UniProt P21730 1-350).
T1 construct: On human neutrophils, L1.2/hC5aR transfectants or neutrophils of hC5aR knock-in mice; also called hC5aR; C5aR1
T1 chain: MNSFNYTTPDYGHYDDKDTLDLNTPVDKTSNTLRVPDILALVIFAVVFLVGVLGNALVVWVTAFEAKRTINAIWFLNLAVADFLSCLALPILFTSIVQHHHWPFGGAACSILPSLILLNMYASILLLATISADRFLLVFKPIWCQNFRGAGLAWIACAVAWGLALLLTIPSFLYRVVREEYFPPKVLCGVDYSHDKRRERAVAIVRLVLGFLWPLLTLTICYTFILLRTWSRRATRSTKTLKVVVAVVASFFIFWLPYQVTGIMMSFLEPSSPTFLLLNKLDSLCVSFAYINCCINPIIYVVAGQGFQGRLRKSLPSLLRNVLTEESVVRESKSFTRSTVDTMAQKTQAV
The assay can be described thus: saturation binding to human neutrophils at 4 C, flow cytometry. The procedure:
Human neutrophils, isolated as described above, were resuspended in dPBS and 1×10⁵ cells (in 25 μl) were dispensed into wells of a 96-well plate. An equal volume (25 μl) of 2× antibody (diluted in PBS) was added to each well. The final antibody concentration using 2-fold serial dilution ranged from 40 to 0 ug/ml (using unlabelled hAb-Q, hAb-J and 7F3). Cells and antibody were incubated for 20 min times at 4° C. After incubation, 100 μl PBS+1% BCS was added to each well and the plate centrifuged at 2,000 rpm for 3 min. […] The cells were washed once as above and resuspended in PBS+1% FCS for analysis by flow cytometry. FSC v SSC scatter was used to identify neutrophils, with the Median Fluorescence Intensity (MFI) determined for each sample. EC50 values were determined by fitting data (MFI—background vs log₁₀[antibody concentration]) to the sigmoidal dose-response (variable slope) i.e. 4-parameter logistic equation using GraphPad Prism (v4.0) software. Bₘₐₓ and KD were determined by fitting data to the one-site binding hyperbola equation.

The target of assay [2] is T1, human C5a receptor. The assay can be described thus: 125I-C5a displacement, L1.2/hC5aR transfectants. The method, then:
The ability of humanized Abs to inhibit ¹²⁵I-labelled C5a binding to L1.2 cells transfected with hC5aR gene or human neutrophils was tested as described below. Recombinant human C5a was obtained from Sigma Chemical Co. (St. Louis, Mo.). ¹²⁵I-Bolton-Hunter-labelled complement C5a was purchased from NEN-Dupont (Boston, Mass.), with a specific activity of 2200 Ci/mM. Briefly, L1.2/hC5aR stable transfectants were grown for several days prior to an experiment then treated overnight with 5 mM butyric acid to stimulate hC5aR expression prior to the binding assay. Human neutrophils were purified from venous blood collected from healthy volunteers. Neutrophils were separated from other leukocytes by percoll density centrifugation followed by a red blood cell lysis step. Both cell types were washed once in PBS and resuspended in binding buffer (50 mM Hepes, pH 7.5, 1 mM CaCl₂, 5 mM MgCl₂, 0.5% BSA) at a concentration of 1×10⁷/ml. Aliquots of 40 μl (4×10⁵ cells) were dispensed into 96 well microtitre plates, followed by the addition of cold competitor (antibody or human C5a). Cells and cold competitor were incubated for 15 min at room temperature before-radiolabelled C5a was added to a final concentration of 0.4 nM. The final reaction volume was 120 μl. After 60 min incubation at room temperature, the cells were washed three times with 150 μl of binding buffer containing 0.15 M NaCl. Cell pellets were then counted on a TopCount Scintillation Counter (Packard). Samples were assayed in triplicate at each of 6-8 concentrations. Each antibody was tested in at least 3 separate assays. The number of counts in each sample was expressed as a percentage of the maximum ¹²⁵I-C5a binding observed in wells with no added cold competitor after subtraction of background.
Results of this analysis (the displacement curves) for each of the humanized antibodies compared to the mouse antibody 7F3 in human neutrophils and L1.2/hC5aR transfectants are given in FIGS. 11 and 12 respectively. […] These values were obtained using Graphpad Prism software fitting the data to the non-linear equation for one site competition.

Assay [3] has as its target T2, peptide A9 (… with Ala at position 5, Y3 of the epitope) (human).
T2 construct: The label A9 and position 5 follow from 'Peptides A2-A13 contained a single alanine substitution at each amino acid position from 12 to 1 respectively'
T2 peptide: Biotin-SGSGVREEAFPPKVLC
The assay can be described thus: peptide ELISA, alanine-scan peptides. The method, then:
(§1) A 384 well streptavidin-coated plate (Nunc) was blocked with 20 μl of blocking buffer (1% w/v BSA in PBS) per well. The plate was washed 4 times with PBS/Tween20 buffer (0.1% v/v Tween 20 in PBS). 20 μl of diluted peptide solution was transferred into a well and the plate incubated for 1 hour at room temperature. After washing the plate 4 times (as above) 20 μl antibody (0.5, 1, 1.25, 2.5 or 5 μg/ml) was added to the well and the plate was incubated for 1 hour at 20° C. The plate was washed 4 times as above then 20 μlHRP-conjugated anti-mouse IgG (1:5000 dilution in PBS/Tween 20) was added to each well. After a 1 hour incubation at room temperature the plate was washed 3 times (as above) then twice with PBS to remove traces of Tween. The presence of peroxidase was detected by adding 20 μl of freshly prepared TMB Substrate reagent (BD Opt EIA) to each well and incubating at room temperature for 20 min. Finally the plate was read at 650 nm/450 nm.
(§2) Peptide A1 had no A1a substitution and peptide A14 was a scrambled version of peptide A1. Peptides A2-A13 contained a single alanine substitution at each amino acid position from 12 to 1 respectively. Binding of antibodies to the peptides coated on ELISA plates was carried out as described above.

Assay [4] has as its target T3, peptide A8 (… with Ala at position 6, F4 of the epitope) (human).
T3 construct: The label A8 and position 6 follow from 'Peptides A2-A13 contained a single alanine substitution at each amino acid position from 12 to 1 respectively'
T3 peptide: Biotin-SGSGVREEYAPPKVLC
The assay can be described thus: peptide ELISA, alanine-scan peptides. The procedure: as §1, §2

Where “and” joins values, the source holds several entries; their conditions need not be identical. Identical values can stand only once. No end group written: not given here. *: point of attachment. Biotin = O=C1N[C@H]2[C@H](CS[C@H]2CCCCC(=O)*)N1

B1: mouse anti-C5aR monoclonal antibody 7F3 (antibody, V domains shown)
VH: QVQLQQSGPELVKPGASVKISCKASGYAFSNSWMNWVKQRPGKGLEWIGRIYPGDGDTKYNGKFKGKATLTADKSSSTAYMQLSSLTSEDSAVYFCARFLLISTVTAVDYWGQGTTLTVSS
VL: DVVMTQSPLSLPVSLGNQASISCRSSQSLVHSNGNTYLHWYLQKPGQSPKLLIYKVSNRFSGVPDRFSGSGSGTDFSLKISRVEAEDLGVYFCSQSTLVPLTFGAGTKLELK
notes: Mouse monoclonal from hybridoma ECACC 00110609; also called m7F3; mouse 7F3
B1: in the assay with human C5a receptor [1], the EC50 (usually the concentration at which the effect is half-maximal) is 8 to 10 nM and the Kd (usually a measure of binding affinity in units of concentration) was 8 to 10 nM. In the assay with human C5a receptor [2], this molecule yielded an EC50 of 0.51 nM.

B2: humanized anti-C5aR antibody hAb-Q (antibody, human IgG4 S228P, kappa)
light: DVVMTQSPLSLPVTLGEPASISCRSSQSLVHSNGNTYLHWYLQKPGQSPQLLIYKVSNRFSGVPDRFSGSGSGTDFTLKISRVEAEDVGVYFCSQSTLVPLTFGQGTKLEIKRTVAAPSVFIFPPSDEQLKSGTASVVCLLNNFYPREAKVQWKVDNALQSGNSQESVTEQDSKDSTYSLSSTLTLSKADYEKHKVYACEVTHQGLSSPVTKSFNRGEC
heavy: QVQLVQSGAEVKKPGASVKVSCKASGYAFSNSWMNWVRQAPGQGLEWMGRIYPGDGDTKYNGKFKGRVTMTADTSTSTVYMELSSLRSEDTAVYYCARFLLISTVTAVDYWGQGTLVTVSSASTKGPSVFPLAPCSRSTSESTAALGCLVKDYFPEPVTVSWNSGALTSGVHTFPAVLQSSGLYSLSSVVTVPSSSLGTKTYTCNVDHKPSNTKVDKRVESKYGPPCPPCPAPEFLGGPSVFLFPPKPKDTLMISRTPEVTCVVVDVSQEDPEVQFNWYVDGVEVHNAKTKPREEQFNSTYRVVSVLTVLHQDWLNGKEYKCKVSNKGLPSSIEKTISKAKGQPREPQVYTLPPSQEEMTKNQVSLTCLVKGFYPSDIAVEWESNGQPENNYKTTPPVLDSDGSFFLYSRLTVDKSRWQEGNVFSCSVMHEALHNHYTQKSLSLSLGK
notes: IgG4 with the Ser228Pro mutation; also called antibody Q; anti-C5aR ab
For the molecule B2, the EC50 is 20 nM to 25 nM (2×) and ~3 µg/mL with human C5a receptor [1]; 0.86 nM with human C5a receptor [2]. The Kd in the assay with human C5a receptor [1] was 20 nM to 25 nM (2×) and ~3 µg/mL. In addition, the binding result in assay [3] and in assay [4] was “no binding” throughout.

B3: humanized anti-C5aR antibody hAb-J (antibody, human IgG4 S228P, kappa)
light: DVVMTQSPLSLPVTLGEPASISCRSSQSLVHSNGNTYLHWYLQKPGQSPQLLIYKVSNRFSGVPDRFSGSGSGTDFTLKISRVEAEDVGVYFCSQSTLVPLTFGQGTKLEIKTVAAPSVFIFPPSDEQLKSGTASVVCLLNNFYPREAKVQWKVDNALQSGNSQESVTEQDSKDSTYSLSSTLTLSKADYEKHKVYACEVTHQGLSSPVTKSFNRGEC
heavy: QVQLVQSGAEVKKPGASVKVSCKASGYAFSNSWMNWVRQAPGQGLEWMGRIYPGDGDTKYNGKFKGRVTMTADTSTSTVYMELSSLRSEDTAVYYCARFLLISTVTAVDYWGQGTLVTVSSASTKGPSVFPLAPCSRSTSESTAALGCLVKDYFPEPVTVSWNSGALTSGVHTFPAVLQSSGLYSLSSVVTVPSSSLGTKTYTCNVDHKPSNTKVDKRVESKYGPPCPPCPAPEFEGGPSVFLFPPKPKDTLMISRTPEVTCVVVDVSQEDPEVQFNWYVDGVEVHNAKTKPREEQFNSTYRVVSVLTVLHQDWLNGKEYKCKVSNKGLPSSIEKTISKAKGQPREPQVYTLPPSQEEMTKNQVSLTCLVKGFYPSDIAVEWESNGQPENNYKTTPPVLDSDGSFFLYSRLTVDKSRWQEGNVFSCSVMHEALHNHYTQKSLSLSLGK
notes: also called antibody J
In the assay with human C5a receptor [2], B3 registered an EC50 of 0.93 nM. Further, the binding result in assay [3] and in assay [4] was “no binding” each time.
